For the assay, the target named is T1, histone H3 (H3) peptide, unmodified (UniProt P68431 2-31).
T1 construct: A synthetic peptide of histone H3, not the whole protein; also called unmodified H3
In words: western blot of peptides. The method, then: Four distinct peptides—histone H3 (H3), citrullinated histone H3 (CitH3; 4 Cit), acetylated histone H3 (AccH3), and methylated histone H3 (MetH3)—at a concentration of 0.5 microgram each, were run in duplicate through SDS-polyacrylamide gel electrophoresis and then transferred to a nitrocellulose membrane (FIG. 7A). This membrane was split into two sections for parallel probing with an equal quantity of Cayman CitH3-mAb (Ann Arbor, MI) or hCitH3-mAb (2 μg/ml) overnight. Post three extensive washes, the sections were incubated with HRP-conjugated secondary antibodies specific to mouse IgG and human IgG (Jackson ImmunoResearch Labs. Cat #309-035-008), respectively, for 2 hours. For concurrent signal development, both membrane sections were exposed simultaneously for the same duration.
In general terms: A western blot detects proteins with antibodies after separation by electrophoresis.

B1: Y1128-VH3/VL3 (hCitH3-mAb) (antibody, V domains shown)
VH: EVQVVQSGAEVKKPGATVKISCKASGFNIKDYYMHWMKQRPEQGLEWIGWIDPENGNTIYDPKFQGRATITSDTSTDTAYLELSSLRSEDTAVYYCAPFGNYVWFAYWGQGTLVTVSS
VL: DVLMTQSPLSLPVTLGQPASISCRSSQSIVHSNGITYLEWYLQRPGQSPKLLIYKVSNRFSGVPDRFSGSGSGTDFTLKISRVEAEDVGLYYCFQGSHVPFTFGQGTKLEIKR
notes: Final lead humanized antibody; intact IgG, detected with anti-human IgG secondary; also called H3L3; humanized CitH3 monoclonal antibody
For the molecule B1, the binding result is given as “no binding (tested: 2 ug/ml antibody; 0.5 microgram peptide)”.

Source of the values: patent US20240262899A1 (UNIVERSITY OF VIRGINIA PATENT FOUNDATION, published 2024).
